In patent publication US20100279930A1 (published 2010):

Target: human Y4 receptor (human, UniProt P50391 1-375)
Assay: 125I-PP displacement

human Y4 receptor, sequence (P50391 whole entry): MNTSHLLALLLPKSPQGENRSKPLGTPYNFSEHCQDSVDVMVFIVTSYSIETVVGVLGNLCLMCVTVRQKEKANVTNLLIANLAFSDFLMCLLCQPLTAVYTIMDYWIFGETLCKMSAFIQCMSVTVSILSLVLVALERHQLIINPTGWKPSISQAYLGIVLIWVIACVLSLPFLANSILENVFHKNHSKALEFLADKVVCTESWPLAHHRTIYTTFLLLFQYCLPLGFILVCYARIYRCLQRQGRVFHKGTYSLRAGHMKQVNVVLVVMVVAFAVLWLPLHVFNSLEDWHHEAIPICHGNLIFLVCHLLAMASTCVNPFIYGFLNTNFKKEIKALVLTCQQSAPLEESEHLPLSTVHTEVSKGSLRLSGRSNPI

Binder | IC50
PAPLEPTYPGDNATPEQKAKYYSELRRYINKLTRPRY [4060280] | 0.064 nM
GAPLEPTYPGDNATPEQLAKYYSELRRYINKLTRPRF [4060283] | 0.073 nM
PAPLEPTYPGDNATPEQLAKYYSELRRYINKLTRPRF [4060284] | 0.055 nM
PAPLEPTYPGDNATPEQLAKYYSELRRYINRLTRPRY [4060277] | 0.076 nM
PAPLEPKYPGDNATPEQLAKYYSELRRYIDKLTRPRY [4060605] | 0.14 nM
PAPLEPKYPGDNATPEQMAKYYSELRRYIDHLTRPRY [4060602] | 0.173 nM
GAPLEPEYPGDNATPEQLARYAAALRRYINKLTRPRY [4060356] | 0.091 nM
PAPLEPEYPGDNATPEQKAKYAAALRRYINHLTRPRY [4060275] | 0.106 nM
PAPLEPEYPGDNATPEQKAKYAAALRRYINRLTRPRY [4060278] | 0.062 nM
GAPLEPEYPGDNATPEQMARYAAALRRYINHLTRPRY [4060358] | 0.08 nM
GAPLEPEYPGDNATPEEMARYAAALRRYINKLTRPRY [4060359] | 0.099 nM
GAPLEPEYPGDNATPEQKARYAAALRRYINKLTRPRY [4060309] | 0.046 nM
YAPLEPEYPGDDATPQQKARYAAELRRYIDKLTRPRY [4060682] | 0.131 nM
GAPLEPVAPGDNATPEQMARYYSELRRYIDKLTRPRY [4060690] | 0.171 nM

More lines, now with the values ahead:

IC50 | Binder
0.124 nM | YAPLEPTYPGDNATPEQKAKYAAELRRYIDKLTRPRY [4061083]
0.126 nM | PAPLEPKYPGDNATPEEMAKYYSELRRYIDKLTRPRY [4060894]
0.159 nM | PAPLEPVYPGDNATPEQKAKYAAELRRYIDKLTRPRY [4061085]
0.137 nM | GAPLEPVYPGDNATPEQLAKYAAELRRYIDKLTRPRY [4060897]
0.172 nM | GAPLEPEAPGDNATPEQMAKYYSELRRYIDKLTRPRY [4060693]
0.11 nM | PAPLEPKYPGDNATPEQLAKYAAELRRYIDKLTRPRY [4060893]
0.213 nM | GAPLEPVYPGDNATPEQKAKYAAELRRYIDHLTRPRY [4061086]
0.1 nM | GAPLEPVYPGDNATPEQKAKYAAELRRYIDRLTRPRY [4061090]
0.174 nM | GAPLEPVYPGDNATPEQKAKYAAELRRYIDKLTRPRY [4061084]
0.107 nM | PAPLEPVYPGDNATPEQKAKYAAELRRYIDRLTRPRY [4061091]
